The values that follow come from the supplement of paper PMC11246515.

± gives the standard deviation of the averaged measurements.

This data set in a line: total protein half-life in vivo (active degradation + dilution); higher = more stable protein.
The mark [1] stands for this setting: E. coli NCM3722 delta-clpP delta-lon delta-hslV, growth: N-lim chemostat, doubling time 6 h.
[2] abbreviates: E. coli NCM3722 delta-hslV, growth: N-lim chemostat, doubling time 6 h.
Setting [3] is: E. coli NCM3722 delta-lon, growth: N-lim chemostat, doubling time 6 h.
[4] abbreviates: E. coli NCM3722 delta-smpB, growth: N-lim chemostat, doubling time 6 h.
The mark [5] stands for this setting: wild type E. coli NCM3722, growth: C-lim chemostat, doubling time 3 h.
Setting [6] is: wild type E. coli NCM3722, growth: C-lim chemostat, doubling time 6 h.
Setting [7] is: wild type E. coli NCM3722, growth: C-lim chemostat, doubling time 12 h.
Setting [8] is: wild type E. coli NCM3722, growth: N-lim chemostat, doubling time 6 h.
Where [9] appears, read: wild type E. coli NCM3722, growth: N-lim chemostat, doubling time 12 h.
Where [10] appears, read: wild type E. coli NCM3722, growth: P-lim chemostat, doubling time 6 h.
The mark [11] stands for this setting: wild type E. coli NCM3722, growth: P-lim chemostat, doubling time 12 h.
Setting [12] is: E. coli NCM3722 delta-clpP, growth: N-lim chemostat, doubling time 6 h.

Turning to “MDKELPWLADNAQLELKYKKGKTPLSHRRWPGEPVSVITGSLIQTLGDELLQKAEKKKNIVWRYENFSLEWQSAITQAINLIGEHKPSIPARTMAALACIAQNDSQQLLDEIVQQEGLEYATEVVIARQFIARCYESDPLVVTLQYQDEDYGYGYRSETYNEFDLRLRKHLSLAEESCWQRCADKLIAALPGINKVRRPFIALILPEKPEIANELVGLECPRTHFHSKEWLKVVANDPTAVRKLEHYWSQDIFSDREASYMSHENHFGYAACAALLREQGLAAIPRLAMYAHKEDCGSLLVQINHPQVIRTLLLVADKNKPSLQRVAKYHKNFPHATLAALAELLALTEPPARPGYPIIEDKKLPAQQKARDEYWRTLLQTLMASQPQLAAEVMPWLSTQPQSVLKSYLSAPPKPVIDGTDNSNLPEILVSPPWRSKKKMTAPRLDLAPLELTPQVYWQPGEQERLAATEPARYFSTESLAQRMEQKSGRVVLQELGFGDDVWLFLNYILPGKLDAARNSLFVQWHYYQGRVEEILNGWNSPEAQLAEQALRSGHIEALINIWENDNYSHYRPEKSVWNLYLLAQLPREMALTFWLRINEKKHLFAGEDYFLSILGLDALPGLLLAFSHRPKETFPLILNFGATELALPVAHVWRRFAAQRDLARQWILQWPEHTASALIPLVFTKPSDNSEAALLALRLLYEQGHGELLQTVANRWQRTDVWSALEQLLKQGPMDIYPARIPKAPDFWHPQMWSRPRLITNNQTVTNDALEIIGEMLRFTQGGRFYSGLEQLKTFCQPQTLAAFAWDLFTAWQQAGAPAKDNWAFLALSLFGDESTARDLTTQILAWPQEGKSARAVSGLNILTLMNNDMALIQLHHISQRAKSRPLRDNAAEFLQVVAENRGLSQEELADRLVPTLGLDDPQALSFDFGPRQFTVRFDENLNPVIFDQQNVRQKSVPRLRADDDQLKAPEALARLKGLKKDATQVSKNLLPRLETALRTTRRWSLADFHSLFVNHPFTRLVTQRLIWGVYPANEPRCLLKAFRVAAEGEFCNAQDEPIDLPADALIGIAHPLEMTAEMRSEFAQLFADYEIMPPFRQLSRRTVLLTPDESTSNSLTRWEGKSATVGQLMGMRYKGWESGYEDAFVYNLGEYRLVLKFSPGFNHYNVDSKALMSFRSLRVYRDNKSVTFAELDVFDLSEALSAPDVIFH”, under setting [1], the “total protein half-life in vivo” value turned out to be 6.38 h.

Regarding “MKFKTNKLSLNLVLASSLLAASIPAFAVTGDTDQPIHIESDQQSLDMQGNVVTFTGNVIVTQGTIKINADKVVVTRPGGEQGKEVIDGYGKPATFYQMQDNGKPVEGHASQMHYELAKDFVVLTGNAYLQQVDSNIKGDKITYLVKEQKMQAFSDKGKRVTTVLVPSQLQDKNNKGQTPAQKKGN [P0ADV1]”, the “total protein half-life in vivo” value by setting is: under setting [1], 5.44 ± 0.34 h; under setting [2], 6.38 ± 0.74 h; under setting [3], 6.48 ± 1.1 h; under setting [4], 6.18 ± 0.62 h; under setting [5], 3.06 ± 0.23 h; under setting [6], 5.6321 ± 0.0032 h. In addition, the “total protein half-life in vivo” value is, setting by setting: under setting [7], 10.5 ± 0.36 h; under setting [8], 5.73 ± 0.082 h; under setting [9], 9.99 ± 1.6 h; under setting [10], 5.79 ± 0.07 h; under setting [11], 11.8 ± 0.99 h.

Consider “MQTQKPTLELLTCEGAYRDNPTALFHQLCGDRPATLLLESADIDSKDDLKSLLLVDSALRITALGDTVTIQALSGNGEALLALLDNALPAGVESEQSPNCRVLRFPPVSPLLDEDARLCSLSVFDAFRLLQNLLNVPKEEREAMFFGGLFSYDLVAGFEDLPQLSAENNCPDFCFYLAETLMVIDHQKKSTRIQASLFAPNEEEKQRLTARLNELRQQLTEAAPPLPVVSVPHMRCECNQSDEEFGGVVRLLQKAIRAGEIFQVVPSRRFSLPCPSPLAAYYVLKKSNPSPYMFFMQDNDFTLFGASPESSLKYDATSRQIEIYPIAGTRPRGRRADGSLDRDLDSRIELEMRTDHKELSEHLMLVDLARNDLARICTPGSRYVADLTKVDRYSYVMHLVSRVVGELRHDLDALHAYRACMNMGTLSGAPKVRAMQLIAEAEGRRRGSYGGAVGYFTAHGDLDTCIVIRSALVENGIATVQAGAGVVLDSVPQSEADETRNKARAVLRAIATAHHAQETF”, for which the “total protein half-life in vivo” value under setting [1] came out at 4.74 ± 0.93 h; the “total protein half-life in vivo” value under setting [12] was 3.4 ± 0.18 h; the “total protein half-life in vivo” value under setting [2] turned out to be 3.1 ± 0.083 h; the “total protein half-life in vivo” value under setting [3] was 3.6 ± 0.24 h; the “total protein half-life in vivo” value under setting [4] is 3.3 ± 0.17 h; the “total protein half-life in vivo” value under setting [5] stood at 2.93 ± 0.52 h. In addition, the “total protein half-life in vivo” value was determined as 5.7 ± 0.12 h under setting [6]; 9.57 ± 0.22 h under setting [7]; 3.25 ± 0.13 h under setting [8]; 5.08 ± 0.34 h under setting [9]; 6.71 ± 0.33 h under setting [10]; 10.7 ± 1.7 h under setting [11].

“MSDNIRVGLIGYGYASKTFHAPLIAGTPGQELAVISSSDETKVKADWPTVTVVSEPKHLFNDPNIDLIVIPTPNDTHFPLAKAALEAGKHVVVDKPFTVTLSQARELDALAKSLGRVLSVFHNRRWDSDFLTLKGLLAEGVLGEVAYFESHFDRFRPQVRDRWREQGGPGSGIWYDLAPHLLDQAITLFGLPVSMTVDLAQLRPGAQSTDYFHAILSYPQRRVILHGTMLAAAESARYIVHGSRGSYVKYGLDPQEERLKNGERLPQEDWGYDMRDGVLTRVEGEERVEETLLTVPGNYPAYYAAIRDALNGDGENPVPASQAIQVMELIELGIESAKHRATLCLA”: the “total protein half-life in vivo” value runs as follows: under setting [1], 5.37 ± 0.71 h; under setting [12], 4.69 ± 0.12 h; under setting [2], 4.729 ± 0.033 h; under setting [3], 5.58 ± 0.43 h; under setting [4], 4.176 ± 0.0077 h; under setting [5], 3.26 ± 0.26 h. Besides, the “total protein half-life in vivo” value reads like this: under setting [6], 5.54 ± 0.26 h; under setting [7], 9.43 ± 2.6 h; under setting [8], 5.05 ± 0.36 h; under setting [9], 10.5 ± 0.45 h; under setting [10], 5.48 ± 0.27 h; under setting [11], 13.8 ± 0.79 h.

On to “MNIVITGGTGLIGRHLIPRLLELGHQITVVTRNPQKASSVLGPRVTLWQGLADQSNLNGVDAVINLAGEPIADKRWTHEQKERLCQSRWNITQKLVDLINASDTPPSVLISGSATGYYGDLGEVVVTEEEPPHNEFTHKLCARWEEIACRAQSDKTRVCLLRTGVVLAPDGGILGKMLPPFRLGLGGPIGSGRQYLAWIHIDDMVNGILWLLDNELRGPFNMVSPYPVRNEQFAHALGHALHRPAILRVPATAIRLLMGESSVLVLGGQRALPKRLEEAGFAFRWYDLEEALADVVR”, for which the “total protein half-life in vivo” value runs as follows: under setting [1], 7.07 ± 0.37 h; under setting [12], 6.1 ± 0.14 h; under setting [2], 6.36 ± 0.6 h; under setting [3], 5.86 ± 0.6 h; under setting [4], 5.71 ± 0.17 h; under setting [5], 3.25 ± 0.15 h. Also, the “total protein half-life in vivo” value reads like this: under setting [6], 5.86 ± 0.16 h; under setting [7], 11.09 ± 0.052 h; under setting [8], 5.76 ± 0.032 h; under setting [10], 5.931 ± 0.026 h; under setting [11], 12.38 ± 0.057 h.

Take “MKPRQRQAAILEYLQKQGKCSVEELAQYFDTTGTTIRKDLVILEHAGTVIRTYGGVVLNKEESDPPIDHKTLINTHKKELIAEAAVSFIHDGDSIILDAGSTVLQMVPLLSRFNNITVMTNSLHIVNALSELDNEQTILMPGGTFRKKSASFHGQLAENAFEHFTFDKLFMGTDGIDLNAGVTTFNEVYTVSKAMCNAAREVILMADSSKFGRKSPNVVCSLESVDKLITDAGIDPAFRQALEEKGIDVIITGESNE”: the “total protein half-life in vivo” value came to 6.55 ± 0.26 h under setting [12]; 5.66 ± 0.25 h under setting [2]; 6.11 ± 1 h under setting [3]; 6.36 ± 0.59 h under setting [4]; 3.36 ± 0.46 h under setting [5]; 6.64 ± 0.39 h under setting [6]. Further, the “total protein half-life in vivo” value under setting [7] was 12.6 ± 2.2 h; the “total protein half-life in vivo” value under setting [8] came out at 6.06 ± 0.35 h; the “total protein half-life in vivo” value under setting [9] worked out at 13 ± 0.2 h; the “total protein half-life in vivo” value under setting [10] came out at 5.82 ± 0.56 h; the “total protein half-life in vivo” value under setting [11] amounted to 12.5 ± 0.15 h.
